# Reference: the array DNA melting data of Ke et al.
# Assay: melting temperature; melt of duplexes
# Settings: sodium 0.0675 M; strand 1 µM
row,Substance,Tm [°C]
1,CGACGTGCGTCATGTGCTG+CAGCACATGAAGCACGTCG ((((((((.((((((((((+)))))))))).)))))))),59.4
2,CGACGTGCGTCATGTGCTG+CAGCACATGAGGCACGTCG ((((((((.((((((((((+)))))))))).)))))))),60.7
3,CGACGTGCGTCATGTGCTG+CAGCACATGATGCACGTCG ((((((((.((((((((((+)))))))))).)))))))),61.1
4,CGACGTGCGTCATGTGCTG+CAGCACATGCGGCACGTCG ((((((((..(((((((((+)))))))))..)))))))),54.4
5,CGACGTGCGTCATGTGCTG+CAGCACATGGCGCACGTCG (((((((((.(((((((((+))))))))).))))))))),63.5
6,CGACGTGCGTCATGTGCTG+CAGCACATTAAGCACGTCG ((((((((.(.((((((((+)))))))).).)))))))),53.3
7,CGACGTGCGTCATGTGCTG+CAGCACATTACGCACGTCG ((((((((((.((((((((+)))))))).)))))))))),57.4
8,CGACGTGCGTCATGTGCTG+CAGCACATTCAGCACGTCG ((((((((...((((((((+))))))))...)))))))),51.3
9,CGACGTGCGTCATGTGCTG+CAGCACATTGGGCACGTCG ((((((((...((((((((+))))))))...)))))))),49.9
10,CGACGTGCGTCATGTGCTG+CAGCACATTGTGCACGTCG ((((((((...((((((((+))))))))...)))))))),46.3
11,CGACGTGCGTCATGTGCTG+CAGCACATTTCGCACGTCG (((((((((..((((((((+))))))))..))))))))),53.1
12,CGACGTGCGTGATGTGCTG+CAGCACATAAGGCACGTCG ((((((((.(.((((((((+)))))))).).)))))))),52.7
13,CGACGTGCGTGATGTGCTG+CAGCACATAGAGCACGTCG ((((((((...((((((((+))))))))...)))))))),53.1
14,CGACGTGCGTGATGTGCTG+CAGCACATATCGCACGTCG (((((((((..((((((((+))))))))..))))))))),54.6
15,CGACGTGCGTGATGTGCTG+CAGCACATCACGCACGTCG (((((((((((((((((((+))))))))))))))))))),66.2
16,CGACGTGCGTGATGTGCTG+CAGCACATCAGGCACGTCG ((((((((.((((((((((+)))))))))).)))))))),59.6
17,CGACGTGCGTGATGTGCTG+CAGCACATCATGCACGTCG ((((((((.((((((((((+)))))))))).)))))))),60.2
18,CGACGTGCGTGATGTGCTG+CAGCACATCCAGCACGTCG ((((((((..(((((((((+)))))))))..)))))))),55.5
19,CGACGTGCGTGATGTGCTG+CAGCACATCGCGCACGTCG (((((((((.(((((((((+))))))))).))))))))),63.6
20,CGACGTGCGTGATGTGCTG+CAGCACATCGTGCACGTCG ((((((((..(((((((((+)))))))))..)))))))),54.5
21,CGACGTGCGTGATGTGCTG+CAGCACATCTAGCACGTCG ((((((((..(((((((((+)))))))))..)))))))),57.2
22,CGACGTGCGTGATGTGCTG+CAGCACATCTCGCACGTCG (((((((((.(((((((((+))))))))).))))))))),61.3
23,CGACGTGCGTGATGTGCTG+CAGCACATGACGCACGTCG ((((((((((.((((((((+)))))))).)))))))))),57.8
24,CGACGTGCGTGATGTGCTG+CAGCACATGCAGCACGTCG ((((((((...((((((((+))))))))...)))))))),54.1

row,Substance,Tm [°C]
1,CGACGTGCGTGATGTGCTG+CAGCACATGGGGCACGTCG ((((((((...((((((((+))))))))...)))))))),51.2
2,CGACGTGCGTGATGTGCTG+CAGCACATGTAGCACGTCG ((((((((...((((((((+))))))))...)))))))),53.3
3,CGACGTGCGTGATGTGCTG+CAGCACATTAAGCACGTCG ((((((((.(.((((((((+)))))))).).)))))))),54.5
4,CGACGTGCGTGATGTGCTG+CAGCACATTATGCACGTCG ((((((((.(.((((((((+)))))))).).)))))))),54.5
5,CGACGTGCGTGATGTGCTG+CAGCACATTCTGCACGTCG ((((((((...((((((((+))))))))...)))))))),51.8
6,CGACGTGCGTGATGTGCTG+CAGCACATTGAGCACGTCG ((((((((...((((((((+))))))))...)))))))),54.7
7,CGACGTGCGTGATGTGCTG+CAGCACATTGCGCACGTCG (((((((((..((((((((+))))))))..))))))))),58
8,CGACGTGCGTGATGTGCTG+CAGCACATTGGGCACGTCG ((((((((...((((((((+))))))))...)))))))),52.3
9,CGACGTGCGTGATGTGCTG+CAGCACATTTAGCACGTCG ((((((((...((((((((+))))))))...)))))))),53.6
10,CGACGTGCGTGATGTGCTG+CAGCACATTTTGCACGTCG ((((((((...((((((((+))))))))...)))))))),50.7
11,CGACGTGCGTTATGTGCTG+CAGCACATAAAGCACGTCG ((((((((.((((((((((+)))))))))).)))))))),56
12,CGACGTGCGTTATGTGCTG+CAGCACATAACGCACGTCG (((((((((((((((((((+))))))))))))))))))),63.6
13,CGACGTGCGTTATGTGCTG+CAGCACATAAGGCACGTCG ((((((((.((((((((((+)))))))))).)))))))),56.5
14,CGACGTGCGTTATGTGCTG+CAGCACATAATGCACGTCG ((((((((.((((((((((+)))))))))).)))))))),57.4
15,CGACGTGCGTTATGTGCTG+CAGCACATACAGCACGTCG ((((((((..(((((((((+)))))))))..)))))))),53.3
16,CGACGTGCGTTATGTGCTG+CAGCACATAGAGCACGTCG ((((((((..(((((((((+)))))))))..)))))))),54.6
17,CGACGTGCGTTATGTGCTG+CAGCACATATAGCACGTCG ((((((((..(((((((((+)))))))))..)))))))),54.5
18,CGACGTGCGTTATGTGCTG+CAGCACATCCTGCACGTCG ((((((((...((((((((+))))))))...)))))))),49.2
19,CGACGTGCGTTATGTGCTG+CAGCACATCGGGCACGTCG ((((((((...((((((((+))))))))...)))))))),48.6
20,CGACGTGCGTTATGTGCTG+CAGCACATCGTGCACGTCG ((((((((...((((((((+))))))))...)))))))),44
21,CGACGTGCGTTATGTGCTG+CAGCACATGAAGCACGTCG ((((((((.(.((((((((+)))))))).).)))))))),54.8
22,CGACGTGCGTTATGTGCTG+CAGCACATGAGGCACGTCG ((((((((.(.((((((((+)))))))).).)))))))),54.1
23,CGACGTGCGTTATGTGCTG+CAGCACATGATGCACGTCG ((((((((.(.((((((((+)))))))).).)))))))),54.6
24,CGACGTGCGTTATGTGCTG+CAGCACATGTAGCACGTCG ((((((((...((((((((+))))))))...)))))))),53.6

row,Substance,Tm [°C]
1,CGACGTGCGTTATGTGCTG+CAGCACATGTCGCACGTCG (((((((((..((((((((+))))))))..))))))))),55
2,CGACGTGCGTTATGTGCTG+CAGCACATTCAGCACGTCG ((((((((...((((((((+))))))))...)))))))),52.1
3,CGACGTGCGTTATGTGCTG+CAGCACATTCGGCACGTCG ((((((((...((((((((+))))))))...)))))))),49.8
4,CGACGTGCGTTATGTGCTG+CAGCACATTCTGCACGTCG ((((((((...((((((((+))))))))...)))))))),50
5,CGACGTGCGTTATGTGCTG+CAGCACATTGCGCACGTCG (((((((((..((((((((+))))))))..))))))))),55.7
6,CGACGTGCGTTATGTGCTG+CAGCACATTGTGCACGTCG ((((((((...((((((((+))))))))...)))))))),47.2
7,CGACGTGCGTTATGTGCTG+CAGCACATTTCGCACGTCG (((((((((..((((((((+))))))))..))))))))),54.4
8,CGACGTGCGTTATGTGCTG+CAGCACATTTGGCACGTCG ((((((((...((((((((+))))))))...)))))))),49.4
9,CGACGTGCGTTATGTGCTG+CAGCACATTTTGCACGTCG ((((((((...((((((((+))))))))...)))))))),49.7
10,CGACGTGCTAAATGTGCTG+CAGCACATAACGCACGTCG ((((((((...((((((((+))))))))...)))))))),50
11,CGACGTGCTAAATGTGCTG+CAGCACATACAGCACGTCG (((((((((..((((((((+))))))))..))))))))),51.9
12,CGACGTGCTAAATGTGCTG+CAGCACATAGAGCACGTCG (((((((((..((((((((+))))))))..))))))))),52.9
13,CGACGTGCTAAATGTGCTG+CAGCACATATAGCACGTCG ((((((((((.((((((((+)))))))).)))))))))),55.4
14,CGACGTGCTAAATGTGCTG+CAGCACATCAGGCACGTCG ((((((((...((((((((+))))))))...)))))))),50.9
15,CGACGTGCTAAATGTGCTG+CAGCACATCCCGCACGTCG ((((((((...((((((((+))))))))...)))))))),48.9
16,CGACGTGCTAAATGTGCTG+CAGCACATCCGGCACGTCG ((((((((...((((((((+))))))))...)))))))),49.5
17,CGACGTGCTAAATGTGCTG+CAGCACATCGAGCACGTCG (((((((((..((((((((+))))))))..))))))))),51.8
18,CGACGTGCTAAATGTGCTG+CAGCACATCGGGCACGTCG ((((((((...((((((((+))))))))...)))))))),49.7
19,CGACGTGCTAAATGTGCTG+CAGCACATCTGGCACGTCG ((((((((.(.((((((((+)))))))).).)))))))),51.1
20,CGACGTGCTAAATGTGCTG+CAGCACATGAAGCACGTCG (((((((((..((((((((+))))))))..))))))))),54.6
21,CGACGTGCTAAATGTGCTG+CAGCACATGACGCACGTCG ((((((((...((((((((+))))))))...)))))))),50.2
22,CGACGTGCTAAATGTGCTG+CAGCACATGATGCACGTCG ((((((((...((((((((+))))))))...)))))))),53.2
23,CGACGTGCTAAATGTGCTG+CAGCACATGCAGCACGTCG (((((((((..((((((((+))))))))..))))))))),55.2
24,CGACGTGCTAAATGTGCTG+CAGCACATGCTGCACGTCG ((((((((...((((((((+))))))))...)))))))),50.1
